Results as given in the supplement of paper PMC10567573.

B1: KLHDC10 (parent)
chain: CPIIRIPNRFLRGHRPPPARSGHR
B2: PTPRD (parent)
chain: MVHVARLLLLLLTFFLRTDAETPP

Variants of: B1
Experiment: protein stability index of a GFP-peptide fusion (GPS, HEK-293T) (PSI 1-6); higher = more stable
Details: c terminus: a fixed tail appended
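Note: lentivirally expressed fusions sorted by FACS into six bins by GFP to DsRed ratio, PSI derived from sequencing read proportions per bin multiplied by bin number.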

Protein stability index: each site, then its substitutions
G22: E 1.78; T 2.39; K 1.71; N 1.95; Y 1.98; I 1.82; L 2.02; F 2.01; A 1.57; V 2.76; S 1.66; R 2.17; M 1.91; H 1.84; Q 1.33; C 1.62; D 2.62
R24: K 1.29; A 2.37; V 2.54; P 2.33; S 2.03; G 2.1; H 2.01; C 1.82; Y 1.7; I 2.99; N 1.84; L 2.61; E 1.59; W 2.99; M 1.93; F 1.31; D 2.93
R20: L 2.45; G 1.95; I 1.38; M 2.13; A 2.48; Q 1.93; F 2.81; D 2.73; C 1.48; W 1.75; V 2.62; P 2.16; T 2.51
H14: S 2.07; I 1.87; N 1.89; E 2.22; P 2.15; W 2.89; D 1.69; L 1.32; G 1.46; Y 1.33; F 1.83; R 1.76; K 2.57; A 1.96; T 1.74; V 2.46; C 1.48; M 1.87
P16: F 1.9; N 2.56; I 1.73; E 1.92; K 3.27; H 1.92; S 2.12; Y 1.31; D 1.72; M 2.33; Q 2.1; V 1.23; L 1.85; T 2.38; C 2.5; R 1.2; G 1.42
R15: W 1.47; Y 1.51; G 1.69; F 1.43; C 1.68; D 2.11; T 1.73; I 1.28; S 1.69; M 1.84; N 2.3; A 1.3; E 1.92; L 1.05; Q 2.44; K 2.19; V 1.84
R12: I 2.32; D 1.92; K 2.09; E 2.47; G 1.8; N 2.27; S 1.9; W 2.5; T 2.02; P 1.63; L 2.25; V 2.75; Y 2.43; Q 2.07; F 1.75; H 2.69; M 1.06
H23: F 1.52; M 1.49; S 1.02; R 1.67; P 1.67; W 1.59; E 1.66; N 2.43; A 1.85; Q 2.06; L 1.12; G 2.02; I 1.82; K 1.5; T 2.66; V 1.69; D 1.38; Y 2.01
S21: K 1.65; L 1.97; A 1.85; V 1.62; F 2.91; G 2.63; M 1.66; P 1.94; T 1.83; I 1.36; H 1.75; R 1.97; W 1.83; D 1.75; N 2.25; Q 1.42
G13: H 1.98; L 1.85; R 1.74; F 1.81; Y 1.88; E 1.38; Q 2.36; C 1.53; N 2.2; T 2.65; A 2.21; P 1.48; W 2; D 1.55; K 1.9; M 1.9; I 2.04
P18: H 2.37; C 1.82; A 1.51; N 2.43; I 2.17; S 2.37; M 1.74; F 1.62; L 1.47; Q 1.78; D 1.49; Y 1.91; R 1.63; K 2.5; V 2.27; G 2.95; T 1.92; W 1.85; E 1.78
A19: W 1.69; S 1.8; V 1.48; I 1.4; F 1.69; L 1.46; D 2.95; H 3.04; M 2.12; R 2.02; Q 1.48; N 2.23; K 1.61; G 1.82
P17: R 2.34; F 1.81; H 1.76; I 1.93; S 2.27; E 1.93; N 2.2; V 3.32; W 1.97; K 2.98; M 1.8; L 2.28; T 1.64; D 1.63; A 2.28; C 1.21; G 2.09; Y 2.55; Q 1.57

Variants of: B2
Experiment: as above
Details: c terminus: a fixed tail appended

Protein stability index: each site, then its substitutions
L9: S 2.29; N 1.58; M 1.87; K 3.08; R 1.88; T 3.23; H 1.53; Y 2.74; W 2.29; F 2.89; Q 1.8; I 2.95; D 3.06; A 2.04
H3: M 2.86; K 1.78; L 2.27; T 3.21; D 2.1; C 4.98; P 1.49; S 4.08
V2: R 2.51; F 4.14; S 2.4; H 2.53; T 2.06; W 2.96; Q 1.88; N 1.79; C 2.73; D 2.92; A 2.85; G 1.83; P 1.93; M 2.69
L10: F 2.43; I 4.4; P 3.02; A 2.23; N 2.71; E 2.79; G 1.33; W 1.93; R 2.14; D 1.67; M 2.42; Y 1.66; K 2.83; Q 1.57; T 1.24; C 2.04
V4: L 3.81; I 1.41; S 2.46; N 2.68; M 1.46; C 3.07; R 2.34; T 2.52; Y 1.52
A5: T 2.7; Y 2.6; L 3.83; F 3.28; H 4.03; Q 2.34; I 1.95; W 2.51; C 2.97; R 1.78
R6: Q 3.99; F 1.74; T 2.3; K 1.67; M 1.76; V 2.29; S 1.88; D 3.08; E 3.41; H 3.34; C 2.16; I 1.13; L 1.9
L8: K 1.98; Y 3.46; D 3.8; R 2.45; T 3.02; C 1.89; F 2.82; I 2.58; Q 2.18
L11: E 1.62
M1: Y 3.9; Q 2.33; I 3.05; T 2.87; E 2.33; F 1.96; H 1.82; K 2.28; L 1.52
L7: S 2.15; G 4.57; E 1.36; N 3.02; P 1.74; K 3.28; C 2.95; Y 2.55; T 3.27; R 2.75; I 3.46; H 2.1
